# “Also recorded” adds a separate entry of the source.
# B1: Cdc20-L203A: mutant allele of Cdc20 in the conserved KILR-motif (protein, UniProt P26309 1-610, looked up, variant L203A)
# APC/C activator protein CDC20: MPESSRDKGNAAISGNRSVLSIASPTKLNILSSDWSRNQGKVSKNSLKRSSSLNIRNSKRPSLQASANSIYSRPKITIGAPPLIRRDSSFFKDEFDAKKDKATFSAYSSRSYPTIGSESVVSQTSLSQPTTSREVDEQFTVAADRYIPILQGASQNKVDPETLHEALPPPNASPISHLRAQTKIVFKQNVAEACGLDMNKRIAQYMPEPPKCSSLRQKSYIMKKRTHYSYQQEQKIPDLIKLRKINTNPERILDAPGFQDDFYLNLLSWSKKNVLAIALDTALYLWNATTGDVSLLTDFENTTICSVTWSDDDCHISIGKEDGNTEIWDVETMSLIRTMRSGLGVRIGSLSWLDTLIATGSRSGEIQINDVRIKQHIVSTWAEHTGEVCGLSYKSDGLQLASGGNDNTVMIWDTRTSLPQFSKKTHTAAVKALSWCPYSPNILASGGGQTDKHIHFWNSITGARVGSINTGSQVSSLHWGQSHTSTNGGMMNKEIVATGGNPENAISVYNYETKFKVAEVVHAHEARICCSQLSPDGTTLATVGGDENLKFYKIFDPRCTGRSREDGLMDGMLGLIGKEGCRTNDKENRSKNSSEIHTRRPSSTSQYLIR
# System: APC/C
# Test: APC/C activity promoted by mutant Cdc20 alleles (Pds1 remaining)
# Type: biochemical, Saccharomyces cerevisiae
# Details: vs wild type Cdc20, n = 3
# Method: The production of Cdc20 or Cdh1 was prepared by IVT/T reactions, where 16 μL of rabbit reticulocyte lysate, 20 μM L-methionine, 0.4 μg of plasmid DNA, and a volume of nuclease-free ddH2O for a total volume of 20 μL. This freshly synthesized Cdc20 or Cdh1 protein was used directly in all APC/C assays after a 1-hour synthesis reaction at room temperature. The APC/C was purified for enzyme assays from 1 mL of TAP-tagged Cdc16 yeast extract (SCSY51) where extract was mixed with 50 μL 50:50 slurry magnetic beads (Invitrogen, Norway) for 2 hours at 4 °C. After incubation, the beads were washed with 3 mL APC/C wash buffer (200 mM of HEPES, 150 mM of NaCl and 10% (v/v) of glycerol). APC/C bound to IgG magnetic beads was used directly in the enzyme assays.
# APC/C assays were performed by adding the reaction contents in following order: 4.3 μL of QAH buffer, 20 μL of rabbit reticulocyte lysate containing Cdc20 or Cdh1 with or without an additional volume of recombinant checkpoint protein(s) or inhibitor peptides, 2.4 μL ubiquitin aldehyde (Boston Biochem, USA), APC/C, 16 μL pre-charged E1/E2/ATP/ubiquitin mix, and 13.3 μL of ^35S-Pds1 with QAH buffer (20 mM HEPES at pH 8.0, 100 mM NaCl, and 1 mM MgCl2). The E1/E2/ATP/ubiquitin mix were pre-charged by mixing 1 μL of E1 (Boston Biochem, USA), 1 μL of E2 (Boston Biochem, USA), 14.4 μL of ATP, 14.4 μL of […] (Boston Biochem, USA), and 17.2 μL of QAH buffer and incubated for 15 minutes at room temperature. Approximately 15 μL of samples were taken out at each time point, and the reaction was stopped by the addition of 2x protein sample buffer (125 mM Tris-HCl pH 6.8, 4% SDS, 20% glycerol, and 0.002% bromophenol blue, with 10% (final v/v) 2-mercaptoethanol added in fresh directly before use).
# For APC/C activity assays dried-gels were exposed on a phosphor screen cassette to detect radio-labeled protein. The phosphor screen was scanned by a Typhoon phosphor-imager (GE Healthcare Bio-Sciences, USA), and radio-labeled protein bands in gels were quantified by employing the ImageQuant software (GE Healthcare Bio-Sciences, USA) according to the manufacturer’s protocols. Data were expressed as mean ± standard deviation, and was analyzed using Student’s t-test. Graphs were created using Kaliedograph 4.0 (Synergy Software, USA) and estimates of best-fit curves of a 4-parameter Hill equation were generated to obtain estimates for the median inhibitory concentrations (IC50) and Hill coefficients (Hc) using IgorPro 6.01 (Wavemetrics, USA).
# By sequence alignment and amino acid homology alone, the budding yeast KILR-motif may be defined as 201-RILQ-204 (Fig 1A). However, the next residue, Tyrosine Y205 had previously been isolated in a genetic screen for spindle checkpoint by-pass alleles of Cdc20 [21], indicating this Y205 residue may be a target of the spindle checkpoint inhibition, and thus might also be a functional KILR-motif residue that contributes to APC/C activation. To clarify this possibility, we took the initial step to characterize several of the previously isolated spindle checkpoint by-pass mutant alleles of Cdc20 [21], and also Cdc20 mutants in the two highly conserved residues within the Mad2-binding motif, the aspartic acid at D197 of unknown function and the highly conserved Leucine L203 within the KILR-motif based on sequence alignment and homology. […]
molecule,measurement,value
B1,ability of mutant Cdc20 to promote APC/C activity (in words),displayed decreased APC/C activity; also recorded: had no APC/C activity; also recorded: consistently displayed a decrease in APC activity

# From paper PMC5993284, “Peptide inhibitors of the anaphase promoting-complex that cause sensitivity to microtubule poison” (PLoS ONE, 2018)
